Molecular target: endogenous SHP-1 (UniProt P29351)
Experiment: GST pull-down of endogenous macrophage SHP-1
Conditions: reference: wild type

Question: With “EHEC (EDL933) Tir (from UniProt Q7DB77) Y490F” as the substance, how does the “binding against the reference” value (sites Y490) read?
Answer: weaker

Question: “EHEC (EDL933) Tir (from UniProt Q7DB77) Y519F” was tested. Which “binding against the reference” value (sites Y519) did it give?
Answer: weaker

Source: paper PMC6542180
